# Assay results from IntAct's records for PubMed 31515488.
# B1: Macrophage scavenger receptor types I and II (Homo sapiens), P21757 (parent)
# chain: MEQWDHFHNQQEDTDSCSESVKFDARSMTALLPPNPKNSPSLQEKLKSFKAALIALYLLVFAVLIPLIGIVAAQLLKWETKNCSVSSTNANDITQSLTGKGNDSEEEMRFQEVFMEHMSNMEKRIQHILDMEANLMDTEHFQNFSMTTDQRFNDILLQLSTLFSSVQGHGNAIDEISKSLISLNTTLLDLQLNIENLNGKIQENTFKQQEEISKLEERVYNVSAEIMAMKEEQVHLEQEIKGEVKVLNNITNDLRLKDWEHSQTLRNITLIQGPPGPPGEKGDRGPTGESGPRGFPGPIGPPGLKGDRGAIGFPGSRGLPGYAGRPGNSGPKGQKGEKGSGNTLTPFTKVRLVGGSGPHEGRVEILHSGQWGTICDDRWEVRVGQVVCRSLGYPGVQAVHKAAHFGQGTGPIWLNEVFCFGRESSIEECKIRQWGTRACSHSEDAGVTCTL
# B2: Microtubule-associated tumor suppressor candidate 2 (Homo sapiens), Q5JR59-3 (parent)
# chain: MGHCCCKPYNCLQCLDKTNESALVKEKELSIELANIRDEVAFHTAKCEKLQKEKEELERRFEDEVKRLGWQQQAELQELEERLQLQFEAEMARLQEEHGDQLLSIRCQHQEQVEDLTASHDAALLEMENNHTVAITILQDDHDHKVQELMSTHELEKKELEENFEKLRLSLQDQVDTLTFQSQSLRDRARRFEEALRKNTEEQLEIALAPYQHLEEDMKSLKQVLEMKNQQIHEQEKKILELEKLAEKNIILEEKIQVLQQQNEDLKARIDQNTVVTRQLSEENANLQEYVEKETQEKKRLSRTNEELLWKLQTGDPTSPIKLSPTSPVYRGSSSGPSSPARVSTTPR
# partner: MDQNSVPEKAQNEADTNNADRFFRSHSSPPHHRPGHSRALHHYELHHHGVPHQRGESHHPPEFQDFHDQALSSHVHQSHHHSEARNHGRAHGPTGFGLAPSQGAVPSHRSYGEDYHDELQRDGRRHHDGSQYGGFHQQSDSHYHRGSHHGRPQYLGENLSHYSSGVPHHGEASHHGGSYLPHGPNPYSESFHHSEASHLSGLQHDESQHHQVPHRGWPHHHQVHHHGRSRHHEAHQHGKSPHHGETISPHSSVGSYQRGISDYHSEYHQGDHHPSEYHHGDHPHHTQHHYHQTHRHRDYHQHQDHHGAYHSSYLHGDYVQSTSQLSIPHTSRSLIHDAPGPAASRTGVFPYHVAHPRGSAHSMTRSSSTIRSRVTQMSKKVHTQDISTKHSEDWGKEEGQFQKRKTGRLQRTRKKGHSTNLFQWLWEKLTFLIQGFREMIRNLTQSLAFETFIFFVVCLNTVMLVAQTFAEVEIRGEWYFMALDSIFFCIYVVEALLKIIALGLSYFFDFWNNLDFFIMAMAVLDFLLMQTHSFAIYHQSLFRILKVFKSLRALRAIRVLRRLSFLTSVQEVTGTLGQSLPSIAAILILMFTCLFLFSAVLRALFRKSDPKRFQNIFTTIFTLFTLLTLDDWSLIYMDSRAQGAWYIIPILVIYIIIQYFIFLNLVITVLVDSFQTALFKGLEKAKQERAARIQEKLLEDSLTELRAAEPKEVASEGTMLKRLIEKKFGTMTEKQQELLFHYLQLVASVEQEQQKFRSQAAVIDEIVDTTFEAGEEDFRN
# B3: Tuftelin-interacting protein 11 (Homo sapiens), Q9UBB9 (parent)
# chain: MSLSHLYRDGEGRIDDDDDERENFEITDWDLQNEFNPNRQRHWQTKEEATYGVWAERDSDDERPSFGGKRARDYSAPVNFISAGLKKGAAEEAELEDSDDEEKPVKQDDFPKDFGPRKLKTGGNFKPSQKGFAGGTKSFMDFGSWERHTKGIGQKLLQKMGYVPGRGLGKNAQGIINPIEAKQRKGKGAVGAYGSERTTQSMQDFPVVDSEEEAEEEFQKELSQWRKDPSGSKKKPKYSYKTVEELKAKGRISKKLTAPQKELSQVKVIDMTGREQKVYYSYSQISHKHNVPDDGLPLQSQQLPQSGKEAKAPGFALPELEHNLQLLIDLTEQEIIQNDRQLQYERDMVVNLFHELEKMTEVLDHEERVISNLSKVLEMVEECERRMQPDCSNPLTLDECARIFETLQDKYYEEYRMSDRVDLAVAIVYPLMKEYFKEWDPLKDCTYGTEIISKWKSLLENDQLLSHGGQDLSADAFHRLIWEVWMPFVRNIVTQWQPRNCDPMVDFLDSWVHIIPVWILDNILDQLIFPKLQKEVENWNPLTDTVPIHSWIHPWLPLMQARLEPLYSPIRSKLSSALQKWHPSDSSAKLILQPWKDVFTPGSWEAFMVKNIVPKLGMCLGELVINPHQQHMDAFYWVIDWEGMISVSSLVGLLEKHFFPKWLQVLCSWLSNSPNYEEITKWYLGWKSMFSDQVLAHPSVKDKFNEALDIMNRAVSSNVGAYMQPGARENIAYLTHTERRKDFQYEAMQERREAENMAQRGIGVAASSVPMNFKDLIETKAEEHNIVFMPVIGKRHEGKQLYTFGRIVIYIDRGVVFVQGEKTWVPTSLQSLIDMAK
# partner: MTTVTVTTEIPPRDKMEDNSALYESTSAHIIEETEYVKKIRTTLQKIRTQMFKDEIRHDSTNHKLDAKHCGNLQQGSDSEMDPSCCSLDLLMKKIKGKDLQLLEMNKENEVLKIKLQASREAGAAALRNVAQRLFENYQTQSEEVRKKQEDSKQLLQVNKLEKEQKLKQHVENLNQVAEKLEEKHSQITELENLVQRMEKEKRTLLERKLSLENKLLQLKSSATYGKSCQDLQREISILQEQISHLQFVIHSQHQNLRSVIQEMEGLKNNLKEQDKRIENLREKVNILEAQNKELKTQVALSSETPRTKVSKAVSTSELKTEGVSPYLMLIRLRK
# B4: Kelch-like protein 3 (Homo sapiens), Q9UH77 (parent)
# chain: MEGESVKLSSQTLIQAGDDEKNQRTITVNPAHMGKAFKVMNELRSKQLLCDVMIVAEDVEIEAHRVVLAACSPYFCAMFTGDMSESKAKKIEIKDVDGQTLSKLIDYIYTAEIEVTEENVQVLLPAASLLQLMDVRQNCCDFLQSQLHPTNCLGIRAFADVHTCTDLLQQANAYAEQHFPEVMLGEEFLSLSLDQVCSLISSDKLTVSSEEKVFEAVISWINYEKETRLEHMAKLMEHVRLPLLPRDYLVQTVEEEALIKNNNTCKDFLIEAMKYHLLPLDQRLLIKNPRTKPRTPVSLPKVMIVVGGQAPKAIRSVECYDFEEDRWDQIAELPSRRCRAGVVFMAGHVYAVGGFNGSLRVRTVDVYDGVKDQWTSIASMQERRSTLGAAVLNDLLYAVGGFDGSTGLASVEAYSYKTNEWFFVAPMNTRRSSVGVGVVEGKLYAVGGYDGASRQCLSTVEQYNPATNEWIYVADMSTRRSGAGVGVLSGQLYATGGHDGPLVRKSVEVYDPGTNTWKQVADMNMCRRNAGVCAVNGLLYVVGGDDGSCNLASVEYYNPVTDKWTLLPTNMSTGRSYAGVAVIHKSL
# Variants of: B1
# Conditions: with sc22a_human SEC22A
row,Variant,effect of a mutation on the interaction
1,V113A,with no effect
2,P346L,with no effect

# Variants of: B2
# Conditions: with ctsr1_human CATSPER1, Q8NEC5
row,Variant,effect of a mutation on the interaction
1,A89V,with no effect

# Variants of: B3
# Conditions: with ccd68_human CCDC68, Q9H2F9
row,Variant,effect of a mutation on the interaction
1,S688L,with no effect
2,R8Q,with no effect

# Variants of: B4
# Conditions: with cul3_human CUL3, Q13618
row,Variant,effect of a mutation on the interaction
1,R228G,disrupting interaction strength
